Experimental data from article PMC8376909, “Identification of a transcription factor, PunR, that regulates the purine and purine nucleoside transporter punC in E. coli”.

T1: PunR (YdhB), LysR-family regulator (Escherichia coli K-12 (ASKA collection …, UniProt P0ACR2 1-310))
T1 sequence: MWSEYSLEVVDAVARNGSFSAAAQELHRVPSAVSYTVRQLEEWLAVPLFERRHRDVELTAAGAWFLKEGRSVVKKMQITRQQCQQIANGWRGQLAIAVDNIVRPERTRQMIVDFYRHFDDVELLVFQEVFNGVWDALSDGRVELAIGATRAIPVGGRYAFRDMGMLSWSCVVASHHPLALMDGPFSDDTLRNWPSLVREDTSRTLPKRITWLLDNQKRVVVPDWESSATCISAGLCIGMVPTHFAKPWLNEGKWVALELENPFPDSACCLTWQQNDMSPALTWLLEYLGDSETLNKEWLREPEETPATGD


How the values were obtained:
[1] = molecular target: T1, PunR (YdhB), LysR-family regulator; assay: fluorescence polarization; 0.35 mM adenine; 10 mM MgSO4; FP: 20 mM Tris-HCl pH 7.5, 0.1 M NaCl, 0.5 mM EDTA, 10 mM MgSO4, 2 mM DTT, 5 ug/ml herring sperm DNA, 10 nM DNA, 30 C 1 h; EMSA: PBS pH 8, 10 mM MgSO4, 2 mM DTT, 0.25 mM adenine (Methods; 1 or 10 mM in Results and Fig. S3), 100 nM DNA, 30 C 1 h then 25 C 1 h, 6% native PAGE Tris-glycine with 0.25 mM adenine; settings: protein: recombinant; tags: N-terminal His6; chain copies: 4; label: 5' 6-carboxyfluorescein on printed strand; blunt
[2] = molecular target: T1, PunR (YdhB), LysR-family regulator; assay: EMSA; 1 mM adenine; PunR up to 1.5 uM; 10 mM MgSO4; FP: 20 mM Tris-HCl pH 7.5, 0.1 M NaCl, 0.5 mM EDTA, 10 mM MgSO4, 2 mM DTT, 5 ug/ml herring sperm DNA, 10 nM DNA, 30 C 1 h; EMSA: PBS pH 8, 10 mM MgSO4, 2 mM DTT, 0.25 mM adenine (Methods; 1 or 10 mM in Results and Fig. S3), 100 nM DNA, 30 C 1 h then 25 C 1 h, 6% native PAGE Tris-glycine with 0.25 mM adenine; settings: protein: recombinant; tags: N-terminal His6; chain copies: 4; label: 5' 6-carboxyfluorescein on printed strand; blunt

Binder | Kd [1] | binding result [2]
PunR-binding site 36 bp upstream of punC (dsDNA) DNA 1: TGGGGACTGGTTTCAAAAATTTTGCAGGCAGAGGGG DNA 2: CCCCTCTGCCTGCAAAATTTTTGAAACCAGTCCCCA | 27 nM | –
GguR binding site 26 bp (negative control) (dsDNA) DNA 1: ACCCCCAGTCATCAGACAACCTCCCC DNA 2: GGGGAGGTTGTCTGATGACTGGGGGT | – | no binding
